{"source": "patent US20100028347A1", "about": "(Eli Lilly, published 2010)", "binders": {"B1": {"name": "anti-human VEGFR-1 antibody 18F1 (antibody, V domains shown)", "VH": "QAQVVESGGGVVQSGRSLRLSCAASGFAFSSYGMHWVRQAPGKGLEWVAVIWYDGSNKYYADSVRGRFTISRDNSENTLYLQMNSLRAEDTAVYYCARDHYGSGVHHYFYYGLDVWGQGTTVTVSS", "VL": "not shown", "notes": "Fully human antibody (gamma heavy chain, kappa light chain) from hybridomas of KM transgenic mice, purified; The light chain entry runs a few residues into the kappa constant region; also called MC-18F1; IMC-18F1"}}, "key": {"[1]": {"molecular_target": "T1, native VEGFR-1 expressed on the cell surface (human, UniProt P17948 27-1338)", "T1 sequence (P17948 27-1338)": "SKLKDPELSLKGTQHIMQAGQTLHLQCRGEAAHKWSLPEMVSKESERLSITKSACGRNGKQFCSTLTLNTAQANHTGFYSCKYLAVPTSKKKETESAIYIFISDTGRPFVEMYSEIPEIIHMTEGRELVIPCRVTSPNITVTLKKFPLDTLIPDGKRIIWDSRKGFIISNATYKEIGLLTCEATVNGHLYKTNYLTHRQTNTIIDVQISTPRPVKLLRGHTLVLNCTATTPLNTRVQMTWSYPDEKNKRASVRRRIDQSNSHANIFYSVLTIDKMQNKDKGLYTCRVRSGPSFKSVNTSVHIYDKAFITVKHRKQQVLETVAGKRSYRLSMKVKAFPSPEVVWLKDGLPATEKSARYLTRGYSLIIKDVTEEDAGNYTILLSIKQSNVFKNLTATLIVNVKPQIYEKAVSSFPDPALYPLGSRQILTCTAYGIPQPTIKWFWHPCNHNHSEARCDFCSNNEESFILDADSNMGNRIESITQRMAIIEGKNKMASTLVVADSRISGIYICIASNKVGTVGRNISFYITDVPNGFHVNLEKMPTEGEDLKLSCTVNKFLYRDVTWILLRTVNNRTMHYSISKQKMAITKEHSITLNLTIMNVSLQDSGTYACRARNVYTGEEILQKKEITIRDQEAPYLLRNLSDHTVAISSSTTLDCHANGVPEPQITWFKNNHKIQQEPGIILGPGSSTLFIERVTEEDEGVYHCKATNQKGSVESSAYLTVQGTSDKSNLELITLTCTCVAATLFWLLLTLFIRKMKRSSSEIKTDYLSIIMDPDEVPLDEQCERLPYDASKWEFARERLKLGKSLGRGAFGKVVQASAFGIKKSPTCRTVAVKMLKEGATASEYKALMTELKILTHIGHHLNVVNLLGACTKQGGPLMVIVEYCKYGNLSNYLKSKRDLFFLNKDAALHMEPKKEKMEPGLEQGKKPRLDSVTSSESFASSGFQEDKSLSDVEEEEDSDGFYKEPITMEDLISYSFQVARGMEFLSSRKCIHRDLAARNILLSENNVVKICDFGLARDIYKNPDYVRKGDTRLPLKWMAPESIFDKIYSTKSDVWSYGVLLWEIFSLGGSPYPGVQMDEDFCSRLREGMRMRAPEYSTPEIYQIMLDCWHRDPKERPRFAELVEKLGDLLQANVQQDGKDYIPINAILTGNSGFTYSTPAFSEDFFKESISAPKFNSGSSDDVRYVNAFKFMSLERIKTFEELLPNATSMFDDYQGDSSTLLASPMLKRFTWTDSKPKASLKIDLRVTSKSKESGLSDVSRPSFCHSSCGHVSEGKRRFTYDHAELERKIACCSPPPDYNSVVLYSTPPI", "experiment": "cell-based or functional assay"}, "[2]": {"molecular_target": "T2, soluble recombinant human VEGFR-1 alkaline phosphatase (human, UniProt P17948 27-758)", "T2 construct": "Made in house in stably transfected cells; also called rhuVEGFR-I AP; VEGFR-I AP; not shown: alkaline phosphatase fusion partner", "T2 sequence (P17948 27-758)": "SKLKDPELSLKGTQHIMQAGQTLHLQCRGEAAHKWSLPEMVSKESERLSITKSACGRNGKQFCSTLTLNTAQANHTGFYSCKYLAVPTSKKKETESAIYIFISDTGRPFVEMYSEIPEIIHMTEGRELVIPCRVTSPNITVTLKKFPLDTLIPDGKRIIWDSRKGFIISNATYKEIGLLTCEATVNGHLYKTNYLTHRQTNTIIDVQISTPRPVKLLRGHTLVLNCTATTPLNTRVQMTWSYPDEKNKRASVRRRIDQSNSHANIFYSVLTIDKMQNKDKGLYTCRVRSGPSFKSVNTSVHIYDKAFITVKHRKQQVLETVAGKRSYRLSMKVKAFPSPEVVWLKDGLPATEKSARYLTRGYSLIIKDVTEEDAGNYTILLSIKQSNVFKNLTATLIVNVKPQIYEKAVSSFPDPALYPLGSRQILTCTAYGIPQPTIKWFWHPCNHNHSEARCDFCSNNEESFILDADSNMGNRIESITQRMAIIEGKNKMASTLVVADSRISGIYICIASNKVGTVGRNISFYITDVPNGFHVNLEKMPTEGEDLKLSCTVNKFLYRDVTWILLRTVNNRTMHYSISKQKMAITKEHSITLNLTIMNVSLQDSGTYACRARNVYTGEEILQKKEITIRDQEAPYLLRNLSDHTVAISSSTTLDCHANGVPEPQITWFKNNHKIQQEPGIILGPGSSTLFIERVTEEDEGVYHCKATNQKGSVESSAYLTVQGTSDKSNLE", "experiment": "blocking ELISA: antibody preincubated with VEGFR-1 AP, binding to PlGF coated plate", "procedure": "(§1) Specifically, hybridoma supernatants or purified antibodies were diluted in PBS with 5% FBS and 0.05% Tween 20 (ELISA buffer) and incubated in rhuVEGFR-I AP or AP coated 96-well microtiter plates for 30 minutes. Plates were washed with the ELISA buffer and incubated with goat anti-mouse IgG-horseradish peroxidase (HRP) conjugate (BioSource International, Camarillo, Calif.) for 30 minutes. TMB (3,3′,5,5′-tetra-methylbenzidine) substrate (Kierkegaard and Perry Lab, Inc., Gaithersburg, Md.) was used for color development following the manufacturer's instruction. The absorbance at 450 nanometers (nm) was read for quantification of binding activity of antibodies. For identification of the hybridomas producing anti-VEGFR-I antibodies, hybridoma supernatants were preincubated with VEGFR-I AP for 1 hour. The mixtures were incubated with the ELISA buffer in VEGF or P1GF coated 96-well microtiter plates for 1 hour. PNPP (p-nitrophenyl phosphate) substrate for AP was used for color development following the manufacturer's instruction. The absorbance at 405 nm was read for quantification of VEGFR-I binding to VEGF or P1GF. Optical density (OD) values were read on a microtiter plate reader (Molecular Devices Corp., Sunnyvale, Calif.). ED50 and IC50 of the antibodies were analyzed using GraphPad Prism 3 software (GraphPad Software, Inc., San Diego, Calif.)."}, "[3]": {"molecular_target": "T2, soluble recombinant human VEGFR-1 …", "experiment": "blocking ELISA: antibody preincubated with VEGFR-1 AP, binding to VEGF coated plate", "procedure": "as §1"}, "[4]": {"molecular_target": "T2, soluble recombinant human VEGFR-1 …", "experiment": "ELISA, purified antibody on rhuVEGFR-1 AP coated plate (given as ED50)", "procedure": "as §1"}, "mouse VEGFR-1 Fc": {"molecular_target": "T3, mouse VEGFR-1 Fc (mouse, UniProt P35969 23-759, limits assumed)", "T3 construct": "not shown: Fc part; not described", "T3 sequence (looked up)": "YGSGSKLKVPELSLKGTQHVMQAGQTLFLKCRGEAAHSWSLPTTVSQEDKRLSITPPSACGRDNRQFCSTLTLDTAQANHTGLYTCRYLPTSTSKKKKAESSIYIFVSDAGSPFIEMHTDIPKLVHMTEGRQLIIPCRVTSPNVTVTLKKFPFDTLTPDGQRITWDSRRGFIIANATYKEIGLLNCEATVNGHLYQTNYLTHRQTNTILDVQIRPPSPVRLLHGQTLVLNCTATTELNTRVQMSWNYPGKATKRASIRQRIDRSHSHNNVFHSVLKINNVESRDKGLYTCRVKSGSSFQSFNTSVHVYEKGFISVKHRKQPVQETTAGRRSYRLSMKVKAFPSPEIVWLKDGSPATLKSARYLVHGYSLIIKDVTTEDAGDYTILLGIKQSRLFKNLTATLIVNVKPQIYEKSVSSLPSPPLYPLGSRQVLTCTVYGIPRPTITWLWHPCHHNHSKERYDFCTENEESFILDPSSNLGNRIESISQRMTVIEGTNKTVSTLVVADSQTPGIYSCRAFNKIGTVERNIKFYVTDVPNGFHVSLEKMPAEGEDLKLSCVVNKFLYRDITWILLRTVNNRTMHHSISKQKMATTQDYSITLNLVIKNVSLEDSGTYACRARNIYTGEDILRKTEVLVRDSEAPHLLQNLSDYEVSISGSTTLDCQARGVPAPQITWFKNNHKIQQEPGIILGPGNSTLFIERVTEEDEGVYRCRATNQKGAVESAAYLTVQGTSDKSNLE", "experiment": "ELISA: antibody dilutions on plate coated with 1 µg/ml mouse VEGFR-1 Fc, HRP secondary, O.D. 450", "procedure": "To determine the specificity of an anti-VEGFR-1 monoclonal antibody to human VEGFR-I, purified antibodies 18F1 were tested in an ELISA-based assay. One μg/ml of recombinant human VEGFR-I Fc, mouse VEGFR-I Fc, mouse VEGFR-2 Fc, or human VEGFR-2 alkaline phosphatase was coated with PBS in a 96-well microtiter plates at 4° C. over night. After wash, the receptor coated plates were blocked with PBS containing 5% Dry Milk and 0.05% Tween 20. Serial dilutions of primary antibody 18F1 to human VEGFR-I, MF1 to mouse VEGFR-I, IC1 1 to human VEGFR-2, or DClOl to mouse VEGFR-2 were incubated in the receptor-coated plates for 30 minutes. After wash secondary anti-primary HRP conjugate antibodies was incubated in the plates for 30 minutes. Plates were washed and incubated with the substrate TMB (3,3′,5,5′-tetra-methylbenzidine) for color development. The absorbance at 450 nm was read as OD values for quantification of binding activity of antibodies. Data were analyzed using a GraphPad Prism Software."}, "mouse VEGFR-1-AP": {"molecular_target": "T4, mouse VEGFR-1-AP (mouse, UniProt P35969 23-759)", "T4 construct": "From ImClone Systems; also called mouse VEGFR-I-AP; not shown: alkaline phosphatase fusion partner; not described", "T4 sequence (looked up)": "T3 sequence (looked up)", "experiment": "ELISA: plate coated with mouse VEGFR-1-AP 100 ng/well, goat anti-human kappa-HRP, O.D. 450"}, "[5]": {"molecular_target": "T1, native VEGFR-1 expressed on the cell …", "experiment": "cell-based or functional assay", "remark": "listed apart in the source"}}}
{"binder": "B1", "values": [{"measurement": "VEGF-A and P1GF stimulated proliferation of DU4475 breast carcinoma cells (estimated IC50)", "setting": "[1]", "result": "30000 to 50000", "unit": "pM"}, {"measurement": "IC50", "setting": "[2]", "result": 550, "unit": "pM"}, {"measurement": "IC50", "setting": "[3]", "result": 840, "unit": "pM"}, {"measurement": "EC50", "setting": "[4]", "result": 100, "unit": "pM"}, {"measurement": "binding result", "setting": "mouse VEGFR-1 Fc", "result": "no binding (tested: 1 µg/ml)"}, {"measurement": "binding result", "setting": "mouse VEGFR-1-AP", "result": "no binding (tested: 1 µg/mL)"}, {"measurement": "Inhibition of PlGF-induced DU4475 cell growth in vitro (IC50)", "setting": "[5]", "result": 24000, "unit": "pM"}]}
